# Measured values published in patent publication US8758746B2, “Fertilization modulation compounds and process for implementing them” (Universite Joseph Fourier, priority 2009, dated 2014).
# “And” between values parts separate entries of the source, which are not always exact repeats. Equal values may be shown once. “Also recorded” adds a separate entry of the source.
# Columns and labels:
# [1] = tested on: spermatozoa; settings: inhibitors of PLA2; Roldan and Fragio 1993; Llanos et al 1993; cited from earlier work
# [2] = tested on: sperm and oocytes; assay: In vitro fertilization (IVF), two-cell embryos scored at 24 h; format: cell-based, mouse; settings: for comparison with mGX sPLA2 effect (FIG. 7): around 10 μM, 45 min during capacitation or 4 h after gamete mixing
# [3] = tested on: Sperm cells from caudae epididymes; assay: Acrosome reaction assay (coomassie blue staining); format: cell-based, mouse; settings: for ability to trigger acrosome reaction (AR) / AR induced above basal spontaneous level of AR: uncapacitated sperm; for ability to trigger acrosome reaction (AR): incubated 10 min with sPLA2 (200 nM in FIG. 2A; pro-mGX at 200 nM)
# Description: Sperm cells from caudae epididymes were allowed to swim in M2 medium for 10 min. Then, sperms were incubated, if necessary, with different sPLA2 in M16 medium at 37° C. for 10 min. Cells were transferred in PBS solution and then fixed with 4% PFA solution for 2 min. Sperm was washed with 100 mM ammonium acetate for 2 min and wet-mounted on slides and allowed to air dry. Slides were then rinsed with water and stained with coomassie blue (0.22%) for 2 min and finally rinsed with water. Slides were counted immediately and 150 sperm cells were scored at least.
# The rate of AR increase from 20%, corresponding to spontaneous acrosome-reacted sperm, to 60% in the presence of 200 nM active sPLA2. In order to better characterize the potency of such compounds to trigger AR, dose-response curves for mGX and mGIIA were realized (FIG. 2B).
# Sperm were capacitated with 2% BSA in M16 medium, in a 5% CO2 incubator at 37° C. At 45 and 80 min, 200 nM of mGX was introduced in the capacitation medium and sperm were fixed 10 min later. The rates of acrosome-reacted sperm observed in the presence of sPLA2 were compared with control sperm capacitated during 55 or 90 min in the capacitation medium (FIG. 2C). […] Moreover, the difference between spontaneous AR and total rate, corresponding to the sPLA2-induced fraction, was around stable throughout the capacitation progress: ≈39%, ≈36% and ≈35% at 10, 55 and 90 min respectively. It is important to notice that a small fraction of sperm of around 20% was reluctant to spontaneous AR or sPLA2-induced AR even in the presence of a high level of spontaneous AR.
# [4] = tested on: Sperm cells; assay: Electron microscopy of sPLA2-induced acrosome reaction; format: cell-based, mouse; settings: uncapacitated sperm
# Description: Sperm cells were fixed with 2.5% glutaraldehyde in 0.1 M cacodylate buffer pH 7.4 during 2 hours at room temperature. Cells were then washed with buffer and post fixed with 1% Osmium tetroxyde in the same buffer during 1 hour at 4° C. After extensive washing with water cells were then stained with 0.5% uranile acetate pH 4 overnight at 4° C. Cells were then dehydrated through graded alcohol (30%-60%-90%-100%-100%-100%) and infiltrate with a mix of 1/1 epon/alcohol 100% during 1 hour before several bath of fresh epon (Flukka) during 3 hours. Finally, cells were centrifugated and immersed in fresh Epon and polymerised during 3 days at 60° C. Ultrathin sections of the cell pellet were cut with an ultramicrotome (Leica). Sections were post-stained with 4% uranile acetate and 1% lead citrate before being observed in an electron microscope at 80 kV (JEOL 1200EX).
# It was important to check with electron microscopy (EM) that sPLA2 induced a morphologically normal acrosome reaction. The morphological criteria by which an acrosome reaction is evaluated to be normal are relatively limited: first, the outer acrosomal membrane should present vesiculation, second, the plasma membrane should fuse with the outer acrosomal membrane and present a characteristic double hair pin shape at the base of the acrosome (Green, D. P. (1978) The induction of the acrosome reaction in guinea-pig sperm by the divalent metal cation ionophore A23187. J. Cell Sci., 32:137-51.:137-151.)
# For these experiments, uncapacitated sperm was used in order to reduce the contribution of spontaneous AR and 200 nM sPLA2 to get maximum sPLA2-induced AR. Sperm were incubated 10 min with mGX sPLA2 or the calcium ionophore A23187 and then fixed. In the presence of A23187, all acrosome-reacted sperm presented complete AR, with the 3 morphological criteria, as described above.
# [5] = tested on: sperm and oocytes; assay: In vitro fertilization (IVF), two-cell embryos scored at 24 h; format: cell-based, mouse; settings: for rate of IVF (effect in words): OF1 sperm treated 10 min with 20 or 200 nM mGX
# Description: Sperm cells, obtained by manual trituration of caudae epididymes from OF1 male mice, were allowed to swim in M2 medium for 10 min. Then, the sperm cells were transferred in M16 medium containing 2% BSA (Bovine Serum Albumen) and incubated 35 min for capacitation. After centrifugation, cells were then transferred in M16 medium and if necessary, incubated with 20 or 200 nM of mGX sPLA2 for 10 min. Sperm cells were centrifugated (1200 rpm, 5 min) and re-suspended in M16 medium to remove […] sPLA2 before to be used for in vitro fertilization experiment. All experiments were carried out at 37° C. Eggs were collected from mature OF1 females (6-weeks old) synchronized with 7.5 units of PMSG (pregnant mare serum gonadotrophin) and 7.5 units of hCG (human chorionic gonadotrophin) before collection.
# IVF using standard protocols were carried out. Eggs were incubated with approximately 10^4 sperm cells, and unbound sperms were washed away after 4 hours of incubation. Twenty four hours after fertilization, the two-cell embryos stages (FIG. 4) were scored as an indication of successful fertilization (FIGS. 5 and 6).
# In vitro fertilizations (IVF) were realized with sperm capacitated 35 min in 2% BSA and then treated 10 min with 20 or 200 nM mGX. Before treated sperm were introduced within oocytes, sperm were washed and centrifuged to remove sPLA2 in order to avoid artefact effects of sPLA2 on sperm-oocyte fusion (Riffo and Parraga, 1997). sPLA2 contaminant in the IVF medium was below 1 nM for sperm treated at 200 nM.
molecule,measurement,setting,value
O=C(CBr)c1ccc(Br)cc1 [4-bromophenacyl bromide],effect on calcium-ionophore induced acrosome reaction,[1],block
CCCCC/C=C\C/C=C\C/C=C\C/C=C\CCCC(=O)O [arachidonic acid],comparison with mGX sPLA2 effect (FIG. 7),[2],mimic mGX sPLA2
CCN(CC)CCCC(C)Nc1c2ccc(Cl)cc2nc2ccc(OC)cc12 (centres unmarked) [mepacrine],effect on calcium-ionophore induced acrosome reaction,[1],block
Lysophosphocholine [LPC],rescue of fertilization decreased by LY329722,[2]; LPC 1 μM during capacitation with LY329722 2 μM (FIG. 8),rescued
same,comparison with mGX sPLA2 effect (FIG. 7),[2],mimic mGX sPLA2
"mGV: Recombinant mouse group V secreted phospholipase A2 (protein, UniProt P97391 21-137, looked up) Phospholipase A2 group V: GLLELKSMIEKVTGKNAFKNYGFYGCYCGWGGRGTPKDGTDWCCQMHDRCYGQLEEKDCAIRTQSYDYRYTNGLVICEHDSFCPMRLCACDRKLVYCLRRNLWTYNPLYQYYPNFLC",ability to trigger acrosome reaction (AR),[3],trigger acrosome reaction
"pro-mGX: the inactive pro-enzyme (precursor molecule) of mGX (protein, UniProt Q9QXX3 18-151, looked up, pro-form) pro-form: EATRRSHVYKRGLLELAGTLDCVGPRSPMAYMNYGCYCGLGGHGEPRDAIDWCCYHHDCCYSRAQDAGCSPKLDRYPWKCMDHHILCGPAENKCQELLCRCDEELAYCLAGTEYHLKYLFFPSILCEKDSPKCN",ability to trigger acrosome reaction (AR),[3],unable to trigger AR
same,ability to trigger acrosome reaction (AR),[3]; listed as Pro-mGX,unable to trigger sperm acrosome reaction
"mGX: Recombinant mouse group X secreted phospholipase A2 (protein, UniProt Q9QXX3 29-151, looked up) Group 10 secretory …: GLLELAGTLDCVGPRSPMAYMNYGCYCGLGGHGEPRDAIDWCCYHHDCCYSRAQDAGCSPKLDRYPWKCMDHHILCGPAENKCQELLCRCDEELAYCLAGTEYHLKYLFFPSILCEKDSPKCN",ability of mGX to trigger AR with 2 mM Ni2+,"[3]; 200 nM mGX, 2 mM Ni2+ in the bath, n=3",block
same,sPLA2-induced fraction (difference between total rate and spontaneous AR),"[3]; 200 nM mGX, 10 min (non-capacitated sperm)",≈ 39%
same,ability of mGX to trigger AR without external calcium,"[3]; 200 nM mGX, 10 min, external calcium removed, n=3",block
same,sPLA2-induced fraction (difference between total rate and spontaneous AR),"[3]; 200 nM mGX, 55 min of capacitation in 2% BSA",≈ 36%
same,sPLA2-induced fraction (difference between total rate and spontaneous AR),"[3]; 200 nM mGX, 90 min of capacitation in 2% BSA",≈ 35%
same,very low dose from which AR is triggered,"[3]; capacitated and uncapacitated sperm, in the absence of oocytes",0.2 nM
same,total rate of acrosome-reacted sperm versus control,"[3]; capacitated sperm (2% BSA, 55 or 90 min), 200 nM mGX for the last 10 min",able to trigger acrosome reaction; also recorded: increased at all capacitation durations
same,AR induced above basal spontaneous level of AR,[3]; 0.2 nM sPLA2,15%
same,AR induced above basal spontaneous level of AR,"[3]; 0.2 nM sPLA2, listed as mGX sPLA2",around 20%
same,ability to trigger acrosome reaction (AR),[3],trigger acrosome reaction; also recorded: able to trigger AR
same,kinetic of induced AR compared with A23187,"[4]; 200 nM, 10 min",slower
same,morphology of induced acrosome reaction (electron microscopy),[4]; incubated 10 min (200 nM sPLA2),normal morphological feature
same,rate of IVF (effect in words),[5],promotes fertilization
same,rate of IVF (effect in words),[5]; listed as mGX sPLA2,increased
same,fertilization outcome (2 cell embryo at 24 h post fertilization),[5]; sPLA2 at 200 nM (FIG. 7),improve fertilization outcome
same,rate of two cells embryos stage at 24 hours (IVF rate),"[5]; sperm from OF1 males treated 10 min with 200 nM mGX, control 45% (44.0±8.9%)",65% and 65.4 ± 5.6%
same,increase of fertilization rate versus non-treated sperm,"[2]; C57Bl/6 strain, mGX treated sperm (200 nM)",142%
same,control IVF with sPLA2 present during sperm-oocyte incubation,[2]; sperm and oocytes incubated with 1 nM mGX,no difference was noticed
same,rate of two-cells embryos stage at 24 hours,"[2]; sperm from C57Bl/6 males treated with 200 nM mGX, control 8.2%",19.9%
"mGIIA: Recombinant mouse group IIA secreted phospholipase A2 (protein, UniProt P31482 22-146, looked up) Phospholipase A2, membrane …: NIAQFGEMIRLKTGKRAELSYAFYGCHCGLGGKGSPKDATDRCCVTHDCCYKSLEKSGCGTKLLKYKYSHQGGQITCSANQNSCQKRLCQCDKAAAECFARNKKTYSLKYQFYPNMFCKGKKPKC",AR induced above basal spontaneous level of AR,[3]; 2 nM sPLA2,around 20%
same,ability to trigger acrosome reaction (AR),[3],trigger acrosome reaction; also recorded: able to trigger AR
